Data set [1] concerns PKG-1α. The data set is described as follows: PKG catalytic activity, Michaelis-Menten kinetics for cGMP. As to conditions: ATP 125 μM, cGMP 0-10 μM; + SIN1 = SIN-1 500 μM, 30 min. It is filed as biochemical, human. How it is done:
Total PKG activity was determined using a non-radioactive immunoassay in cell lysates, according to the manufacturer's directions. Briefly, protein samples were diluted in kinase reaction buffer containing Mg^2+ and ATP (125 μM) in the presence or absence of 8-Br cGMP (10 μM) and incubated in a 96 well plate pre-coated with a PKG substrate containing threonine residues phosphorylated by PKG.
After incubation for 30 min at 30° C. to allow the phosphorylation of the bound substrate, an HRP conjugated anti-phosphothreonine specific antibody was added to convert a chromogenic substrate to a colorimetric substrate that was subsequently read spectrophotometrically at 450 nm. The change in absorbance reflected the relative activity of PKG in the sample. The results were reported as pmols of phosphate incorporated into the GST-G substrate fusion protein by active PKG in the sample in the presence or absence of cGMP (10 μM) per minute at 30° C. per μg of protein (pmol/min/μg). […] The kinetic constants were determined using nonlinear regression (curve fit) analysis (GraphPad Prism Software Inc.).
To determine the Michaelis-Menten constant (Km) for cGMP, the kinase assay was performed, as mentioned above; however, the cGMP concentration was titrated from 0-10 μM, while the ATP concentration remained constant at 125 μM.

Data set [2] deals with PKG-1α. Description: [3H]cGMP binding assay on immunopurified PKG-1α. Set-up: species or system human. As to conditions: [3H]cGMP 0-200 nM, 100 ng immunopurified enzyme; average affinity of the two cGMP-binding sites; + SIN1 = cells exposed to SIN-1 500 μM, 30 min. How it is done:
HEK-293T cells were transiently transfected with either the WT-PKG-1α or the Y247FPKG-1α cDNA using Effectene transfection reagent (Qiagen), according to the manufacturer's instructions. Briefly, the cells were split the day before the transfection to low cell densities (25%) and were transfected 24 h later. After 48 h of transfection, the cells were incubated in DMEM serum free media containing 1% FBS and antibiotics for 4 h and then treated with or without SIN-1 (500 μM), for 30 min. This method produced an approximate 70% transfection efficiency of HEK-293T cells, as measured using green fluorescent protein vectors. […]
The batches of supernatant were pooled, and 2 μg of anti-PKG-1α antibody per mg of protein were added to the extract and rocked at 4° C. […] After 15 min of agitation at 4° C., the beads were pelleted by centrifugation, and the supernatant containing the PKG-1α protein was collected, quantified using Bradford reagent, and stored at −80° C.
To assay the binding of cGMP to WT- and Y247F-PKG-1α the enzymes were saturated with cGMP by incubating 50 μl aliquots of the diluted PKG constructs for 60 min at room temperature with 50 μl of [^3H]cGMP and 150 μl of cGMP-binding assay mixture (25 mM K2HPO4, 25 mM KH2PO4, 1 mM EDTA, pH 6.8, 2M NaCl, 200 μM 3-isobutyl-1-methylxanthine). […] The dissociation constant (Kd) values were determined using GraphPad Prism graphics. […]

Non-standard residues stand in square brackets, D forms with d. Tyr(3-NO2) = N[C@@H](Cc1ccc(O)c([N+](=O)[O-])c1)C(=O)O

B1: WT-PKG-1α + SIN1: WT-PKG-1α immunopurified from cells exposed to SIN-1 (500 μM, 30 min) (protein)
chain: SELEEDFAKILMLKEERIKELEKRLSEKEEEIQELKRKLHKCQSVLPVPSTHIGPRTTRAQGISAEPQTYRSFHDLRQAFRKFTKSERSKDLIKEAILDNDFMKNLELSQIQEIVDCMYPVEYGKDSCIIKEGDVGSLVYVMEDGKVEVTKEGVKLCTMGPGKVFGELAILYNCTRTATVKTLVNVKLWAIDRQCFQTIMMRTGLIKHTEYMEFLKSVPTFQSLPEEILSKLADVLEETHYENGE[Tyr(3-NO2)]IIRQGARGDTFFIISKGTVNVTREDSPSEDPVFLRTLGKGDWFGEKALQGEDVRTANVIAAEAVTCLVIDRDSFKHLIGGLDDVSNKAYEDAEAKAKYEAEAAFFANLKLSDFNIIDTLGVGGFGRVELVQLKSEESKTFAMKILKKRHIVDTRQQEHIRSEKQIMQGAHSDFIVRLYRTFKDSKYLYMLMEACLGGELWTILRDRGSFEDSTTRFYTACVVEAFAYLHSKGIIYRDLKPENLILDHRGYAKLVDFGFAKKIGFGKKTWTFCGTPEYVAPEIILNKGHDISADYWSLGILMYELLTGSPPFSGPDPMKTYNIILRGIDMIEFPKKIAKNAANLIKKLCRDNPSERLGNLKNGVKDIQKHKWFEGFNWEGLRKGTLTPPIIPSVASPTDTSNFDSFPEDNDEPPPDDNSGWDIDF
Regarding B1, in the data set on PKG-1α [1], the Vmax amounted to 0.28 ± 0.01 pmol/min/µg. Also, the dissociation constant (Kd) at PKG-1α [2] was determined as 32.1 ± 5.5 nM.
